# Laboratory results taken from patent US20080113421A1, “Stabilizing proteins against denaturation and inactivation by charged detergents using chemical modifications, including modifications that increase net charge” (President and Fellows of Harvard College, priority 2006, published 2008).
# Columns and labels:
# [1] = Screening of additives in denaturation/renaturation with SDS; assay type: physicochemical
# Protocol: Additives in de-/renaturation included the following. The effects of the following additives on denaturation and renaturation of BCA and BCA-Ac18 were screened: poly(ethelyneglycol) (PEG, MW=2000), 0.1 mM, 1 mM; poly(vinylpyrrolidone), MW=10 000, 1%, 10% w/v; 3-(3-cholamidopropyl)dimethylammoniopropane sulfonate (CHAPS), 1 mM; octanol, 1 mM; tetrabutylammonium thiocyanate, 100 mM; sodium thiocyanate, 100 mM, 1 M; sodium sulfate, 10 mM; betaine, 1 M; dimethyl sulfoxide (DMSO), 1%, 10% v/v; N-methylpyrrolidone, 1%, 10% v/v. The screening was performed in a 96-well plate format, using a SpectraMax Gemini XS spectrometer (Molecular Devices), with a protein concentration of 100 nM, a DNSA concentration of 10 micromolar (present in the denaturation/renaturation buffers), and variable concentrations of SDS.
# In some experiments, various additives were used to prevent aggregation of BCA and BCA-Ac18. These additives were commonly used to prevent aggregation of carbonic anhydrases and other proteins. The additives included polymers (PEG), other surfactants (CHAPS), “salting-in” Hofmeister salts (tetrabutylammonium thiocyanate and sodium thiocyanate), osmolytes (betaine), and organic solvents (dimethyl sulfoxide and N-methylpyrrolidone). […] For example, in 10% DMSO, it was observed that refolding of BCA up to 1.2 mM SDS (vs. 0.7 mM SDS without a cosolvent), but unfolding up to 2.5 mM SDS was not observed.
# [2] = Net charge of protein (capillary electrophoresis, charge ladder); assay type: physicochemical
# Protocol: BCA-Ac18 was synthesized by reacting the lysine residues of BCA with acetic anhydride in 100 mM HEPES buffer, pH 8.2. The N-terminus of BCA was acetylated posttranslationally. The final product contained ˜90% of BCA-Ac18 and 10% of BCA-Ac17, as determined by peak areas in an electropherogram from separation by capillary electrophoresis. The net charge of BCA in Tris-Gly buffer was about −3, and the net charge of BCA-Ac18 was about −19. It is believed that the difference in charge between BCA and BCA-Ac18 was less than 18 full units of charge due to charge regulation-adjustment of protonation states of other ionizable groups on the protein to counteract the increasing electrostatic potential on its surface.
# For any charge ladder of BCA, as the number of modifications (n) increases, the total charge on the protein becomes more negative, and the surface of the protein becomes more hydrophobic due to conversion of NH3^+ groups to NHCOR groups. Native BCA has a charge of ˜−2.9 at pH 8. The charge on the early rungs of the ladder increased linearly with the number of acylations; each rung adds an additional charge of ˜−0.9. Therefore, for example, BCA-Ac8 has a charge of ˜−10. The later rungs of the ladder may differ by <0.9 units of charge. Using the Linderstrom-Lang model of cooperativity in proton binding, the charge on BCA-Ac18 was calculated to be −19. The mobility of a given rung of BCA-Acn may have nearly the same mobility as the corresponding rung of BCA-Hexn. Thus, the charges of the BCA-Hexn may be indistinguishable from those of BCA-Acn for a given rung number. (Small deviations in mobility between later rungs of the two ladders may be due either to a change in charge or a change in drag between the two ladders. It can be assumed that any differences in the mobilities are due to additional drag from the hexanoyl groups relative to the acetyl groups.
# [3] = Refolding after 1 week incubation at intermediate SDS concentrations (aggregation test); assay type: physicochemical; conditions: denatured in 10 mM SDS, incubated 1 week at intermediate SDS, diluted into 0.1 mM SDS
# Protocol: Aggregation was tested by renaturing the proteins from a denatured state at 10 mM SDS to 0.1 mM SDS, but through an incubation step at intermediate concentrations of SDS, instead of renaturing by rapid dilution from 10 mM SDS to 0.1 mM SDS directly (i.e., 10 mM SDS→2.5 mM SDS→0.1 mM SDS instead of 10 mM SDS→0.1 mM SDS). For incubation, concentrations of SDS were chosen in which aggregation was believed to occur on a similar or shorter time scale as refolding. The protein-SDS complex was diluted from 10 mM SDS to 2.5-0.7 mM SDS, the proteins were incubated for 1 week at those concentrations, and the samples further diluted to 0.1 mM SDS to initiate fast refolding.
# The fluorescence signal from DNSA was normalized to that of refolded protein by rapid dilution from 10 to 0.1 mM SDS.
# [4] = from solutions of GuHCl; cited from earlier work
# [5] = Refolding of SDS-denatured protein by dilution or removal of SDS, monitored by DNSA fluorescence; assay type: physicochemical
# Protocol: Monitoring refolding of BCA and BCA-Ac18 was performed as follows. The proteins (10 micomolar) were denatured in 10 mM SDS for 24 h. […] Refolding was initiated by dilution of an aliquot of the denatured sample to a final concentration of protein of 200 nM, with varying concentrations of SDS in the buffer. Immediately prior to the measurement, an aliquot of renaturing protein was mixed with an equal aliquot of DNSA. The rate constants for renaturation were determined by fitting the data to FU=FUmax(1-e^−kt)+FUmin. The refolding experiments at 37° C. were performed similarly.
# The kinetics of refolding were determined as follows. The rates of refolding of BCA and BCA-Ac18 from the fully denatured states (in 10 mM SDS) were measured by dilution of the solutions into buffers containing concentrations of SDS from 0.1 to 2 mM, using the fluorescence of DNSA as a marker for the appearance of the folded state. […] As in denaturation studies, an aliquot of solution of the protein and SDS was mixed with an equal aliquot of solution of DNSA with the same amount of SDS immediately prior to the measurement to eliminate the possibility of DNSA influencing refolding kinetics. The buffer also contained 100 micromolar ZnSO4 to ensure that the folded protein could incorporate a Zn(II) cofactor.
# The raw data emphasize the decrease in the yield of folded protein with increasing concentration of SDS. […] The half-lives (t1/2) for renaturation were determined, where possible, by fitting the data to FU=FUmax(1-exp(−t/t1/2))+FUmin; the fits are shown (solid lines). The tables provide data for refolding in 0.1 and 0.4 mM SDS as well as for concentrations on the graphs for comparison. […] The error bars represent the difference between the average and the largest and smallest values measured from at least three replicate measurements.
substance,measurement,setting,value
bovine carbonic anhydrase II [BCA],highest SDS concentration at which refolding was observed,[1]; 1 mM CHAPS,up to 1.8 mM
same,SDS concentration needed for unfolding,"[1]; 1 mM CHAPS, unfolding did not occur below this concentration",≥ 2.5 mM
same,highest SDS concentration at which refolding was observed,[1]; 10% DMSO,up to 1.2 mM
same,SDS concentration needed for unfolding,"[1]; 10% DMSO, unfolding up to this concentration not observed",> 2.5 mM
same,highest SDS concentration at which refolding was observed,[1]; without a cosolvent,≤ 0.7 mM
same,net charge,[2]; Tris-Gly buffer,about −3
same,charge,[2]; pH 8,~−2.9
same,t1/2 for refolding,[3],10.8 ± 0.6 min
same,time constant of rate-limiting step in folding,[4],~10 min
same,concentration of SDS at which no refolded protein was observed,[5]; dilution from 10 mM SDS,≥ 800 µM
same,range of SDS concentrations in which protein neither refolds nor unfolds at an observable rate (window),[5]; time scales of a month,0.8 to 2 mM
same,refolding rate (given as time) after denaturation with SDS,[5]; upon complete removal of the SDS,11 ± 1 min
